In PMC3521654, “The Nuclear Chaperone Nucleophosmin Escorts an Epstein-Barr Virus Nuclear Antigen to Establish Transcriptional Cascades for Latent Infection in Human B Cells” (PLoS Pathogens, 2012):

B1: flag-tagged NPM1 truncated deletion mutant C2 (1–194) (domain or fragment, UniProt P06748 1-194, looked up)
chain: MEDSMDMDMSPLRPQNYLFGCELKADKDYHFKVDNDENEHQLSLRTVSLGAGAKDELHIVEAEAMNYEGSPIKVTLATLKMSVQPTVSLGGFEITPPVVLRLKCGSGPVHISGQHLVAVEEDAESEDEEEEDVKLLSISGKRSAPGGGSKVPQKKVKLAADEDDDDDDEEDDDEDDDDDDFDDEEAEEKAPVKK
notes: source: BJAB, transfected, in lysate
B2: flag-tagged NPM1 truncated deletion mutant C3 (1–120) (domain or fragment, UniProt P06748 1-120, looked up)
chain: MEDSMDMDMSPLRPQNYLFGCELKADKDYHFKVDNDENEHQLSLRTVSLGAGAKDELHIVEAEAMNYEGSPIKVTLATLKMSVQPTVSLGGFEITPPVVLRLKCGSGPVHISGQHLVAVE
notes: also called N-terminal oligomerization domain (OD); source: BJAB, transfected, in lysate

How the values were obtained:
[1] = target: T1, EBNA2 from the transfected expression vector (pSG5-EBNA2, E2) (Epstein-Barr virus, UniProt P12978 1-487); assay: cell-based or functional assay
T1 sequence (looked up): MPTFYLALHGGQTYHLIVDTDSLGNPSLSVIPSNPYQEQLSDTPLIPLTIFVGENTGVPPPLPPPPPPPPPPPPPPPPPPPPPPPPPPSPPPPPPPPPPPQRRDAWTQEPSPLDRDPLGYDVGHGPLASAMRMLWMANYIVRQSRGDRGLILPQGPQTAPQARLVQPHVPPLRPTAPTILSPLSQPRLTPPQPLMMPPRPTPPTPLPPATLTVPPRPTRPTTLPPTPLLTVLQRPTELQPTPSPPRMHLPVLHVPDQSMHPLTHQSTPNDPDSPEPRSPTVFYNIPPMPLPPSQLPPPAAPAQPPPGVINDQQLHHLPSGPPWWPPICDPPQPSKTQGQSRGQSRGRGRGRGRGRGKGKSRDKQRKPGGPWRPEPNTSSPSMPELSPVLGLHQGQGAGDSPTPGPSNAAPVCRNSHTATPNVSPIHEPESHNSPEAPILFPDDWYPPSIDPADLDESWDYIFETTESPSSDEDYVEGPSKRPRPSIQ

GST-E2 300–360 = target: T2, GST-E2 300–360 (Epstein-Barr virus, UniProt P12978 300-360); assay: pull-down; conditions: one partner purified
T2 construct: source: E. coli BL21 (DE3) pLys, purified (GST-sepharose)
T2 sequence: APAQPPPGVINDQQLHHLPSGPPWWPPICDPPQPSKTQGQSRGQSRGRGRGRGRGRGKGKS

Binder	co-activation of EBNA2-dependent LMP1-Luc reporter activity in BJAB cells [1] [fold]	percent of input pulled down (GST-E2 300–360) [%]
B1	2.5	~2
B2	2.5	~2
